# Measurements: patent publication US20130084295A1
# B1: murine anti-human IFN-α monoclonal antibody 9F3 (antibody, IgG2, V domains shown)
# VL: DIVLTQSPASLAVSLGQRATISCRASQSVSTSSYSYMHWYQQKPGQPPKVLISYASNLESGVPARFSGSGSGTDFTLNIHPVEEGDTATYFCQHSWGIPRTFGAGTKLELRRAV
# VH: EVQLQQSGPELVKPGASVKISCKTSGYTFTEYIIHWVKQGHGRSLEWIGSINPDYDITNYNQRFKGKATLTLDKSSRTAYLELRSLTSEDSAVYYCASWISDFFDYWGQGTTLMVSAAS
# B2: humanized 9F3 F(ab) version F-11 (Fab, V domains shown)
# VH: EVQLVESGGGLVQPGGSLRLSCATSGYTFTEYIIHWVRQAPGKGLEWVASINPDYDITNYNQRFKGRFTISLDKSSNTAYLQMNSLRAEDTAVYYCASWISDFFDYWGQGTLVTVSS
# VL: DIQMTQSPSSLSASVGDRVTITCRASQSVSTSSYSYMHWYQQKPGKAPKLLIYYASNLESGVPSRFSGSGSGTDFTLTISSLQPEDFATYYCQHSWGIPRTFGQGTKVEIK
# B3: humanized 9F3 F(ab) version F-12 (Fab, V domains shown)
# VH: EVQLVESGGGLVQPGGSLRLSCATSGYTFTEYIIHWVRQAPGKGLEWVASINPDYDITNYNQRFKGRFTISLDKSKRTAYLQMNSLRAEDTAVYYCASWISDFFDYWGQGTLVTVSS
# VL: DIQMTQSPSSLSASVGDRVTITCRASQSVSTSSYSYMHWYQQKPGKAPKLLIYYASNLESGVPSRFSGSGSGTDFTLTISSLQPEDFATYYCQHSWGIPRTFGQGTKVEIK
# B4: humanized 9F3 F(ab) version F-14 (Fab, V domains shown)
# VH: EVQLVESGGGLVQPGGSLRLSCATSGYTFTEYIIHWVRQAPGKGLEWVASINPDYDITNYNQRFKGRFTISRDKSKRTAYLQMNSLRAEDTAVYYCASWISDFFDYWGQGTLVTVSS
# VL: DIQMTQSPSSLSASVGDRVTITCRASQSVSTSSYSYMHWYQQKPGKAPKVLISYASNLESGVPSRFSGSGSGTDFTLTISSLQPEDFATYYCQHSWGIPRTFGQGTKVEIK
# B5: humanized 9F3 F(ab) version F-15 (Fab, V domains shown)
# VH: EVQLVESGGGLVQPGGSLRLSCATSGYTFTEYIIHWVRQAPGKGLEWVASINPDYDITNYNQRFKGRFTISLDNSKRTAYLQMNSLRAEDTAVYYCASWISDFFDYWGQGTLVTVSS
# VL: DIQMTQSPSSLSASVGDRVTITCRASQSVSTSSYSYMHWYQQKPGKAPKVLISYASNLESGVPSRFSGSGSGTDFTLTISSLQPEDFATYYCQHSWGIPRTFGQGTKVEIK
# B6: humanized 9F3 F(ab) version F-1 (Fab, V domains shown)
# VH: EVQLVESGGGLVQPGGSLRLSCAASGYTFTEYIIHWVRQAPGKGLEWVASINPDYDITNYNQRFKGRFTISRDNSKNTLYLQMNSLRAEDTAVYYCARWISDFFDYWGQGTLVTVSS
# VL: DIQMTQSPSSLSASVGDRVTITCRASQSVSTSSYSYMHWYQQKPGKAPKLLIYYASNLESGVPSRFSGSGSGTDFTLTISSLQPEDFATYYCQHSWGIPRTFGQGTKVEIK
# B7: humanized recombinant anti-IFN-α monoclonal antibody V13IgG2 (antibody, V domains shown)
# VH: EVQLVESGGGLVQPGGSLRLSCATSGYTFTEYIIHWVRQAPGKGLEWVASINPDYDITNYNQRFKGRFTISLDKSKRTAYLQMNSLRAEDTAVYYCASWISDFFDYWGQGTLVTVSS
# VL: DIQMTQSPSSLSASVGDRVTITCRASQSVSTSSYSYMHWYQQKPGKAPKVLISYASNLESGVPSRFSGSGSGTDFTLTISSLQPEDFATYYCQHSWGIPRTFGQGTKVEIKR
# Assays:
# [1] = biological target: leukocyte interferon (Sigma Product No. 1-2396): heterogeneous collection of IFN-α subtypes produced by activated leukocytes; assay: cell-based or functional assay
# [2] = biological target: IFN-α (subtype not stated; antigen of the ELISA, BIAcore and Kinexa assays of Example 2) (human); assay: Kinexa
# [3] = biological target: IFN-α (subtype not stated; antigen of the ELISA, BIAcore and Kinexa assays of Example 2) (human); assay: ELISA, IFN-α coated at 0.1 µg/ml, F(ab) at 10 µg/ml; SD 0.06, N 3
# [4] = biological target: IFN-α (subtype not stated; antigen of the ELISA, BIAcore and Kinexa assays of Example 2) (human); assay: ELISA, IFN-α coated at 0.1 µg/ml, F(ab) at 10 µg/ml; SD 0.05, N 3
# [5] = biological target: IFN-α (subtype not stated; antigen of the ELISA, BIAcore and Kinexa assays of Example 2) (human); assay: ELISA, IFN-α coated at 0.1 µg/ml, F(ab) at 10 µg/ml; SD 0.32, N 3
# [6] = biological target: IFN-α (subtype not stated; antigen of the ELISA, BIAcore and Kinexa assays of Example 2) (human); assay: ELISA, IFN-α coated at 0.1 µg/ml, F(ab) at 10 µg/ml; SD 0.00, N 3
# [7] = biological target: IFN-α (subtype not stated; antigen of the ELISA, BIAcore and Kinexa assays of Example 2) (human); assay: Kinexa; remark: listed apart in the source
binder,measurement,setting,value
B1,"neutralization of anti-viral activity (EMC virus, A549 cells; 10 µg/ml mAb)",[1],> 95%
same,Kd,[2],1.5 pM
B2,OD450 nm at 10 µg/ml (mean),[3],0.642 OD450 nm
B3,OD450 nm at 10 µg/ml (mean),[4],0.912 OD450 nm
B4,OD450 nm at 10 µg/ml (mean),[3],0.472 OD450 nm
B5,OD450 nm at 10 µg/ml (mean),[5],0.868 OD450 nm
B6,OD450 nm at 10 µg/ml (mean),[6],0.06 OD450 nm
B7,fold reduction of affinity against the parental murine 9F3 antibody,[7],2 fold
